Data on 55 sequences can be found in the supplement of paper PMC11780869.

This data set concerns Bacillus subtilis. Put plainly: cleaved RNA product abundance (RNA/gDNA barcode ratio) relative to median wild-type variant (ratio to wild type); higher = more accumulation of the downstream cleavage product. In a few lines: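 Oligos with a 9% error rate were used to build barcoded, mutagenized RNase Y cleavage-site windows within truncated aprE or tetM reporter mRNAs, which were integrated into the B. subtilis chromosome. Cultures were grown in LB at 37°C between OD600 0.0003 and 0.3. Cleaved RNA was gel-selected, reverse transcribed and barcode-sequenced, as were genomic DNA barcodes, and UMIs were collapsed. Cleaved product abundance is the scaled RNA:gDNA barcode ratio, with the median construct carrying the unmutated site as reference.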

[1] abbreviates: experiment (reporter, strain, medium): exp 2b: truncated aprE reporter, strain BJT200, cleavage site: cggR-gapA (positions -7 to +36 mutated).
The mark [2] stands for this setting: experiment (reporter, strain, medium): exp 4a: truncated aprE reporter, strain BJT201 with 2% xylose (RNase J1 expressed), cleavage site: cggR-gapA (positions -7 to +36 mutated).
Where [3] appears, read: experiment (reporter, strain, medium): exp 6: tetM reporter, strain 168, cleavage site: cggR-gapA (positions -7 to +36 mutated).
Setting [4] is: experiment (reporter, strain, medium): exp 8a: truncated aprE reporter, strain BJT201 with 2% xylose (RNase J1 expressed), cleavage site: glnRA (positions -5 to +31 mutated).

Regarding “ACAGACGAAGGAGCCGCAAAGAAGTTATTAAGGGATGTATAATCCATCAATATAAATATCTCTCACTTATTTAAA”, the “cleaved RNA product abundance” value under setting [1] amounted to 0.175 and the “cleaved RNA product abundance” value under setting [2] is 0.238.

Turning to “ACAGACGAAGGAGCCGCAAAGAAGTAATTAAAGGATGAATAATCCCTCAATATAAATATCTCTCACTTATTTAAA”, the “cleaved RNA product abundance” value by setting is: under setting [1], 0.101; under setting [2], 0.105.

In the case of “ACAGACGAAGGAGCCGCAAAGAAGTTATTAAGGGATGAAAAATCACTCAATATAAATATCTCTCACTTATTTAAA”, the “cleaved RNA product abundance” value by setting is: under setting [1], 0.113; under setting [2], 0.101.

Turning to “ACAGACGAAGGAGCCGCAAAGAAGTTATTAAGGGATGAATAATCCCTAAATATAAATATCTCTCACTTATTTAAA”, the “cleaved RNA product abundance” value is, setting by setting: under setting [1], 0.622; under setting [2], 0.72; under setting [3], 0.772.

On to “ACAGACGAAGGAGCCGCAAAGTAGTTATTAAGGGTTGAATAATCCCTCAATATAAATATCTCTCACTTATTTAAA”, for which the “cleaved RNA product abundance” value under setting [2] came to 0.364.

For “ACAGACGAAGGAGCCGCAAAGAAGTTATTAAGGGATGAAGAAGCCCTCAATATAAATATCTCTCACTTATTTAAA”, the “cleaved RNA product abundance” value under setting [2] was 0.549.

On to “ACAGACGAAGGAGCCGCAAAGTAGTTATTAAGGGATGAATAATACCTCAATATAAATATCTCTCACTTATTTAAA”, for which the “cleaved RNA product abundance” value by setting is: under setting [1], 0.155; under setting [2], 0.176.

For “CGACATGTCCCGCTTCTTTCATTAATCCGTAACCAACTGTTTTGCTATATACATTTACCTTTTAAGAGGAGGAAT”, the “cleaved RNA product abundance” value under setting [4] turned out to be 0.187.

Consider “CGACATGTCCCGCTTCTTTCATTAATCCGTTAGCAACTGTTTTGCTATATACATGTACCTTTTAAGAGGAGGAAT”, for which the “cleaved RNA product abundance” value under setting [4] is 0.738.

Turning to “CGACATGTCCCGCTTCTTTCATTAATCCGTTAGGAACTGTTTTGCTATATACATTTGCCTTTTAAGAGGAGGAAT”, under setting [4], the “cleaved RNA product abundance” value came to 0.376.

Regarding “CGACATGTCCCGCTTCTTTCATTAATCCGTTAGCAACTATTTTGCTATATATATTTACCTTTTAAGAGGAGGAAT”, the “cleaved RNA product abundance” value under setting [4] came out at 1.42.

As for “ACAGACGAAGGAGCCGCAAAAAACTTATTAAGGGATGATTAATCCCTCAATATAAATATCTCTCACTTATTTAAA”, the “cleaved RNA product abundance” value under setting [1] turned out to be 0.325.

Take “ACAGACGAAGGAGCCGCAAAGAAGTTATTAAGGGATGAATAATTCCTCAATATACATATCTCTCACTTATTTAAA”: the “cleaved RNA product abundance” value under setting [2] came to 0.498.

In the case of “CGACATGTCCCGCTTCTTTCATTAATCCGTTATCAACTGTTTTGCTATTTACATTTACCTTTTAAGAGGAGGAAT”, under setting [4], the “cleaved RNA product abundance” value is 0.111.

As to “ACAGACGAAGGAGCCGCTAAGAAGTTATTAAGGGATGACTAATCCCTCAATATAAATATCTCTCACTTATTTAAA”, under setting [2], the “cleaved RNA product abundance” value worked out at 0.542.

“CGACATGTCCCGCTTCTTTCATTAATCCGATAGCAACTGTTTTGCTATATACATTTAACTTTTAAGAGGAGGAAT”: the “cleaved RNA product abundance” value under setting [4] is 0.63.

Turning to “ACAGACGAAGGAGCCGCAAAGAAATTATTAAGGCATGAATAATCCCTCAATATAAATATCTCTCACTTATTTAAA”, the “cleaved RNA product abundance” value is, setting by setting: under setting [1], 0.109; under setting [2], 0.122.

“ACAGACGAAGGAGCCGCAAAGAAGTTATTATGGGATAAATAATCCCTCAATATAAATATCTCTCACTTATTTAAA”: the “cleaved RNA product abundance” value runs as follows: under setting [1], 0.31; under setting [2], 0.362.

Consider “CGACATGTCCCGCTTCTTTCATTAATCCGTTTGCAACTGTTTTGCTATATACATTTACCTTTTAAGAGGAGGAAT”, for which the “cleaved RNA product abundance” value under setting [4] turned out to be 0.549.

On to “ACAGACGAAGGAGCCGCAAAGAAGTGATTACGGGATGAATAATCCCTCAATATAAATATCTCTCACTTATTTAAA”, for which the “cleaved RNA product abundance” value under setting [2] came to 0.396.

As for “ACAGACGAAGGAGCCGCAAAGAAGTTATTAAGGGTTGAATAATCCATCAATATAAATATCTCTCACTTATTTAAA”, under setting [2], the “cleaved RNA product abundance” value is 0.205.

As for “ACAGACGAAGGAGCCGCAAAGAAGTTATTAAGGGAAGAATAATCCCTCATTATAAATATCTCTCACTTATTTAAA”, the “cleaved RNA product abundance” value is, setting by setting: under setting [1], 0.208; under setting [2], 0.216.

In the case of “ACAGACGAAGGAGCCGCAAAGAAGTTATTAAGGGACGAATAATCCCTCAATATAAATCTCTCTCACTTATTTAAA”, the “cleaved RNA product abundance” value under setting [2] worked out at 0.53.

As to “ACAGACGAAGGAGCCGCAAAGTAGTTCTTAAGGGATGAATAATCCCTCAATATAAATATCTCTCACTTATTTAAA”, the “cleaved RNA product abundance” value under setting [2] is 0.195.

“CGACATGTCCCGCTTCTTTCATTAATACGTTAGCAACTATTTTGCTATATACATTTACCTTTTAAGAGGAGGAAT”: the “cleaved RNA product abundance” value under setting [4] was 1.33.

As for “ACAGACGAAGGAGCCGCAAAGAAGTTATTAAGGGATGAATAATCCCTCAGGATAAATATCTCTCACTTATTTAAA”, the “cleaved RNA product abundance” value under setting [1] came out at 0.131.

Regarding “ACAGACGAAGGAGCCGCAAAGAAGTTATTAAGGGATGAATAGTCCTTCAATATAAATATCTCTCACTTATTTAAA”, the “cleaved RNA product abundance” value under setting [2] came to 0.359.

With “CGACATGTCCCGCTTCTTTCATTAATCCGTTAGCACCTGTTTTGCTATATACATTTACCTTTTAAGAGGAGGAAT”, the “cleaved RNA product abundance” value under setting [4] was found to be 0.748.

As to “ACAGACGAAGGAGCCGCAAAGATGTTATTAAGGGGTGAATAATCCCTCAATATAAATATCTCTCACTTATTTAAA”, the “cleaved RNA product abundance” value under setting [1] stood at 0.656.

“ACAGACGAAGGAGCCGCAAACAAGTTATAAAGGGATGAATAATCCCTCAATATAAATATCTCTCACTTATTTAAA”: the “cleaved RNA product abundance” value under setting [2] worked out at 0.408.

As to “CGACATGTCCCGCTTCTTTCATTAATTCGTTAGCAACTGTTTTACTATATACATTTACCTTTTAAGAGGAGGAAT”, the “cleaved RNA product abundance” value under setting [4] amounted to 0.749.

Consider “ACAGACGAAGGAGCCGCGAAGAAGTTATTAAGGGATGAATAATCGCTCAATATAAATATCTCTCACTTATTTAAA”, for which the “cleaved RNA product abundance” value under setting [2] was found to be 0.134.

Consider “ACAGACGAAGGAGCCGCGAAGAAGTTATTAAGGGATCAATAATCCCTCAATATAAATATCTCTCACTTATTTAAA”, for which the “cleaved RNA product abundance” value under setting [2] is 0.762.

As to “CGACATGTCCCGCTTCTTTCATTAATCCGTGAGCAACTGTTTTGCTATATTCATTTACCTTTTAAGAGGAGGAAT”, under setting [4], the “cleaved RNA product abundance” value turned out to be 0.177.

Consider “ACAGACGAAGGAGCCGCAAAGAAGTTATTAAGGGATGAATACTCCCTCAATTTAAATATCTCTCACTTATTTAAA”, for which, under setting [2], the “cleaved RNA product abundance” value was found to be 0.167.

For “ACAGACGAAGGAGCCGCAAAGACTTTATTAAGGGATGAATAATCCCTCAATATAAATATCTCTCACTTATTTAAA”, the “cleaved RNA product abundance” value under setting [2] stood at 0.8.

Take “ACAGACGAAGGAGCCGCAAAGAAGTTATTAAGGGATCAATAATCCCTCAATATACATATCTCTCACTTATTTAAA”: the “cleaved RNA product abundance” value under setting [2] was determined as 0.736.

As to “CGACATGTCCCGCTTCTTTCATTAATCCGTTAGCCACTGTTTTGCTATATACATTTACTTTTTAAGAGGAGGAAT”, under setting [4], the “cleaved RNA product abundance” value was 0.98.

With “CGACATGTCCCGCTTCTTTCATTACTCCGTTAGCAACTGTTTTGCCATATACATTTACCTTTTAAGAGGAGGAAT”, the “cleaved RNA product abundance” value under setting [4] is 0.246.

Regarding “ACAGACGAAGGAGCCGCAAAGAAGTTATTAAGGGGTGAAAAATCCCTCAATATAAATATCTCTCACTTATTTAAA”, under setting [2], the “cleaved RNA product abundance” value was 0.504.

With “ACAGACGAAGGAGCCGCAAAGAAGTTATTAAGGGATGAACAATCCCTCAATATTAATATCTCTCACTTATTTAAA”, under setting [2], the “cleaved RNA product abundance” value stood at 0.189.

Consider “ACAGACGAAGGAGCCGCAAAGAAGTTAGTAAGGGATGAATAAACCCTCAATATAAATATCTCTCACTTATTTAAA”, for which the “cleaved RNA product abundance” value under setting [2] worked out at 0.158.

Regarding “ACAGACGAAGGAGCCGCAAAGAAGTTATTAAGGGATTAATAATCCCTCAATATAAATATCTCTCACTTATTTAAA”, the “cleaved RNA product abundance” value is, setting by setting: under setting [1], 0.996; under setting [2], 0.958; under setting [3], 1.09.

In the case of “CGACATGTCCCGCTTCTTTCATTAATCCGTTAGCAACTATTTTACTATATACATTTACCTTTTAAGAGGAGGAAT”, the “cleaved RNA product abundance” value under setting [4] was 0.726.

Regarding “ACAGACGAAGGAGCCGCAAAGAAGTTATTAAGGGATGAATAATCCCTCAATATATATAACTCTCACTTATTTAAA”, the “cleaved RNA product abundance” value reads like this: under setting [1], 0.679; under setting [2], 0.429.

For “CGACATGTCCCGCTTCTTTCATTAATCCGTGATCAACTGTTTTGCTATATACATTTACCTTTTAAGAGGAGGAAT”, under setting [4], the “cleaved RNA product abundance” value was 0.346.

As for “CGACATGTCCCGCTTCTTTCATTAATCCGTTTGCAACTGTTTTGCTATATACATTTACTTTTTAAGAGGAGGAAT”, under setting [4], the “cleaved RNA product abundance” value amounted to 0.552.

With “ACAGACGAAGGAGCCGCTAAGTAGTTATTAAGGGATGAATAATCCCTCAATATAAATATCTCTCACTTATTTAAA”, the “cleaved RNA product abundance” value under setting [2] turned out to be 1.27.

Turning to “CGACATGTCCCGCTTCTTTCATTAATCCGTTAGCAACTATTTAGCTATATACATTTACCTTTTAAGAGGAGGAAT”, under setting [4], the “cleaved RNA product abundance” value is 1.01.

In the case of “CGACATGTCCCGCTTCTTTCATTAATCCCTTAGCAACTGTTTTGCTGTATACATTTACCTTTTAAGAGGAGGAAT”, the “cleaved RNA product abundance” value under setting [4] was 0.108.

In the case of “ACAGACGAAGGAGCCGCAAAGAAGTTGTTAAGGCATGAATAATCCCTCAATATAAATATCTCTCACTTATTTAAA”, the “cleaved RNA product abundance” value under setting [1] worked out at 0.103.

As for “CGACATGTCCCGCTTCTTTCATTAATCCGTTAGCAACTGTTTTGCTAAATACATTTACCTTTTAAGAGGAGGAAT”, under setting [4], the “cleaved RNA product abundance” value stood at 0.524.

Regarding “CGACATGTCCCGCTTCTTTCATTAATCCGTTAGGAACTGTTTTGCAATATACATTTACCTTTTAAGAGGAGGAAT”, the “cleaved RNA product abundance” value under setting [4] is 0.342.

As to “ACAGACGAAGGAGCCGCAAAGAATTTATTAAGGGATGAATAATCCCTCAATATAAACATCTCTCACTTATTTAAA”, the “cleaved RNA product abundance” value runs as follows: under setting [1], 0.291; under setting [2], 0.683.

Turning to “CGACATGTCCCGCTTCTTTCATTATTCCGTTAGCAACTGTTTTGCTATATACATTTATCTTTTAAGAGGAGGAAT”, the “cleaved RNA product abundance” value under setting [4] was 1.8.
